Common to all, as to experiment: microtiter plate binding assay
Test [1] has as its target Bovine cardiac myosin (bovine) (UniProt Q9BE39).
Test [2] deals with Rabbit skeletal muscle myosin (rabbit) (UniProt Q28641).
In test [3] the target is Bovine cardiac myosin (bovine) (UniProt Q9BE39). This is another data set of the same source.

Where two headings read alike, the source gives them in different places.

UniProt Q28641, sequence (Q28641 whole entry, chain 1 of 3): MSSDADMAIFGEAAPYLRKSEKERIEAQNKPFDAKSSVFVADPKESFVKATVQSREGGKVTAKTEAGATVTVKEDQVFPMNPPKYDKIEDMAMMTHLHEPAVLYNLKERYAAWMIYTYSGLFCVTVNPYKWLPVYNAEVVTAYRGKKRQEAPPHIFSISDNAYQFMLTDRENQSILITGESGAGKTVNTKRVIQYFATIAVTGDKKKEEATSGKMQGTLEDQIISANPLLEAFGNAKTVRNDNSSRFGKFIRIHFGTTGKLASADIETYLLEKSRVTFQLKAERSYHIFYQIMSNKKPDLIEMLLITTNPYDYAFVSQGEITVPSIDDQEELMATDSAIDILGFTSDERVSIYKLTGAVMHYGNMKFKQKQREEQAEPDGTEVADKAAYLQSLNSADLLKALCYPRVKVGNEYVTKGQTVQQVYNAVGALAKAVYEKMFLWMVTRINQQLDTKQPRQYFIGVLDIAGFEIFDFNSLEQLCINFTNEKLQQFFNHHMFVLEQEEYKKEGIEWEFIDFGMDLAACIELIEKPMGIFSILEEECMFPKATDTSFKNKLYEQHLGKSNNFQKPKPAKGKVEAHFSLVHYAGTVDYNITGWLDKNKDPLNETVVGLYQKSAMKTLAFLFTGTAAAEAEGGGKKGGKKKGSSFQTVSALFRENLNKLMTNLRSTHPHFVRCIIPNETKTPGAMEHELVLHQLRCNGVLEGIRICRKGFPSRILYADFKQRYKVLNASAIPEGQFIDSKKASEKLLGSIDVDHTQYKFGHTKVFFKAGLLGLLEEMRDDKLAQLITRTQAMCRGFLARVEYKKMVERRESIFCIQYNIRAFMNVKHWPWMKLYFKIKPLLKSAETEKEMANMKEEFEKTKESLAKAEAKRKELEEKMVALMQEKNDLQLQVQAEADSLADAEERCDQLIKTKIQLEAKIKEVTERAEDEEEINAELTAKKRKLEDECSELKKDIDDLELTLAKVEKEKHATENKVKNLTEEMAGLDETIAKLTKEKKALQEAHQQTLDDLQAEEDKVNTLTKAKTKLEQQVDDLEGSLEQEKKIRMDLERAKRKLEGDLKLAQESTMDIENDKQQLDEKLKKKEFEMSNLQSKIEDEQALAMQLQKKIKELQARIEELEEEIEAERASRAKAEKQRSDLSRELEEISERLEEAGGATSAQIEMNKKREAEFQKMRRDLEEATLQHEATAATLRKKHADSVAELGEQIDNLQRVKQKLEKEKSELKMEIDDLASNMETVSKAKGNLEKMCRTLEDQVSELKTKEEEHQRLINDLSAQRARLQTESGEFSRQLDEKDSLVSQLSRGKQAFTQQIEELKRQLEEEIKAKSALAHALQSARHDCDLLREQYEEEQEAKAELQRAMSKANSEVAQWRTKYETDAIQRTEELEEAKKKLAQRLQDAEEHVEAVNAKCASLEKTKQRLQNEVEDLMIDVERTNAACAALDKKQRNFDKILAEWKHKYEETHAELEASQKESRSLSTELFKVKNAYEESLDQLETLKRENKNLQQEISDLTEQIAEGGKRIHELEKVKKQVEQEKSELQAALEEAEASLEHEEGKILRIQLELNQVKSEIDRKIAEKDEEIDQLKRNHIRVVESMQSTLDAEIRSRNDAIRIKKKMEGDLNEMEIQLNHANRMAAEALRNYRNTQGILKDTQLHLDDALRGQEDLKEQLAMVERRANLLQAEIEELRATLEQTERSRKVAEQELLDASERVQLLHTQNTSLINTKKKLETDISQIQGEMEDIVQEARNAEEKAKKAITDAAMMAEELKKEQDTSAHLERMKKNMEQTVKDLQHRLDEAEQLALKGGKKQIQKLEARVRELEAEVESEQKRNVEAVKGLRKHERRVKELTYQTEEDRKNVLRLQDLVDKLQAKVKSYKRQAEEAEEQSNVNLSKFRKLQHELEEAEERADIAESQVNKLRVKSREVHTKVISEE
UniProt Q28641, sequence (P02602 2-192, chain 2 of 3, further chain): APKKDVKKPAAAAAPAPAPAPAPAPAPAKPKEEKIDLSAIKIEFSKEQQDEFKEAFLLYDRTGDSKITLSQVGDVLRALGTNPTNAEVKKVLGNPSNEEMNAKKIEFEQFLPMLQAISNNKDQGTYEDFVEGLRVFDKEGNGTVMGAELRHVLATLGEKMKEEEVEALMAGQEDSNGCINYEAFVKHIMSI
UniProt Q28641, sequence (P02608 2-170, chain 3 of 3, further chain): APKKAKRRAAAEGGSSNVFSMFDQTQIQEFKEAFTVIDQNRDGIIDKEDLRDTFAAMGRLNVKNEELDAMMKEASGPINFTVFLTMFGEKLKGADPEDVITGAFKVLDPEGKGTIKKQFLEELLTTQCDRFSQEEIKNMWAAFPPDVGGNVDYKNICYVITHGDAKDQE

For Human factor Xa (enzyme), the Kd (usually the free concentration of one partner at which half of the binding sites on the other are occupied at equilibrium, for simple one-to-one binding) in test [1] turned out to be 108 nM; in test [2], 80.4 nM; in test [3] it was 21 nM.

The values above are taken from article PMC7135739.
